# Patent US20200157212A1 (Pfizer, published 2020)
# B1: Abcs35-J (antibody, human IgG1, kappa)
# heavy: EVQLVQSGAEVKKPGASVKVSCKASGYTFTGYYMHWVRQAPGQGLEWMGWINPKNGDTEFPQKFQGRVTMTRDTSITTAYMELSRLRSDDTAVYYCARESGDDAFDIWGQGTMVTVSSASTKGPSVFPLAPSSKSTSGGTAALGCLVKDYFPEPVTVSWNSGALTSGVHTFPAVLQSSGLYSLSSVVTVPSSSLGTQTYICNVNHKPSNTKVDKKVEPKSCDKTHTCPPCPAPEAAGAPSVFLFPPKPKDTLMISRTPEVTCVVVDVSHEDPEVKFNWYVDGVEVHNAKTKPREEQYNSTYRVVSVLTVLHQDWLNGKEYKCKVSNKALPAPIEKTISKAKGQPREPQVYTLPPSREEMTKNQVSLTCLVKGFYPSDIAVEWESNGQPENNYKTTPPVLDSDGSFFLYSKLTVDKSRWQQGNVFSCSVMHEALHNHYTQKSLSLSPGK
# light: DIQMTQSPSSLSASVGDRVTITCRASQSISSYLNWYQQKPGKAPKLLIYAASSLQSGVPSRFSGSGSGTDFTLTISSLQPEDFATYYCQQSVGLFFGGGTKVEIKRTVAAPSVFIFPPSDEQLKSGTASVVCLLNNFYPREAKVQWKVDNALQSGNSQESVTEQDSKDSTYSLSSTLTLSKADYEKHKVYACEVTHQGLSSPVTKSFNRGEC
# notes: germlined variant of Abcs35; also called ABCS-J
# Target: T1, Human ROBO2 KSR mutant overexpressed on HEK293 cells (human, UniProt Q9HCK4 22-1378)
# T1 construct: R100K and K102R already in the entry
# T1 sequence: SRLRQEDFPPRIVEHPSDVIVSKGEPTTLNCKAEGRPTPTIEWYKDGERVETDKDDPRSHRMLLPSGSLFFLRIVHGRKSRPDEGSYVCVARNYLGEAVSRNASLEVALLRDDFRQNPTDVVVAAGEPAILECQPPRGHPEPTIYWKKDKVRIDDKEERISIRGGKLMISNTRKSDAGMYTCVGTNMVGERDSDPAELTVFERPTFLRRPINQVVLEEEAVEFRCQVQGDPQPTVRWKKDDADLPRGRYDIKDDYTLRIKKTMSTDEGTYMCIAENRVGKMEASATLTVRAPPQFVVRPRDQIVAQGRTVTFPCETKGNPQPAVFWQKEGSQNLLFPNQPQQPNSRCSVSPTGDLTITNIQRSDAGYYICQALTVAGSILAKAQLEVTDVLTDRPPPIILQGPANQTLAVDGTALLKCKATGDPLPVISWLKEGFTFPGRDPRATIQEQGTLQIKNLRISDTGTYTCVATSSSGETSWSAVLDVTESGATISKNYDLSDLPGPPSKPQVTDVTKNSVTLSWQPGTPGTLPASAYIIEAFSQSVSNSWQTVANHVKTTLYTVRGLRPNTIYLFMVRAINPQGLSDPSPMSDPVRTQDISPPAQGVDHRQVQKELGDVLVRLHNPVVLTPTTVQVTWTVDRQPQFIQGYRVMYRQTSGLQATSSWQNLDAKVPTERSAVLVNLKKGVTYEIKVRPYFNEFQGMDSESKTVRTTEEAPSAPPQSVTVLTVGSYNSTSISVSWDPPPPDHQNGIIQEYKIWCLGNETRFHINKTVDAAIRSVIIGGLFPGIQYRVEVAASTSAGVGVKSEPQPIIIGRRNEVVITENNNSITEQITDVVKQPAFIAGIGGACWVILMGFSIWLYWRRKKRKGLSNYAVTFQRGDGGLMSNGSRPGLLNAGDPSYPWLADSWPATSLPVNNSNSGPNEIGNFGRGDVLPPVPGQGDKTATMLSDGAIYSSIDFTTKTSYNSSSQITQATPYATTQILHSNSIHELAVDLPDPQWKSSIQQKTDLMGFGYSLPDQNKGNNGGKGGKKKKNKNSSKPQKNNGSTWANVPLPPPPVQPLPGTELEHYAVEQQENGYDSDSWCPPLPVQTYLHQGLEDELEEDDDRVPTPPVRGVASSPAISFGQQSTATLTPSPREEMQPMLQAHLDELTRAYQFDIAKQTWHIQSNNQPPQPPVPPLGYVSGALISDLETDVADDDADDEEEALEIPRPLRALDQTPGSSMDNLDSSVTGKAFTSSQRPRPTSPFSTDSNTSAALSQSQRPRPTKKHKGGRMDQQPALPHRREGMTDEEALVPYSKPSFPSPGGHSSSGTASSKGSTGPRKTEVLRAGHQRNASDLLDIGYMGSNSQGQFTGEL
# Experiment: flow cytometry on HEK293 cells overexpressing the ROBO2-KSR mutant
# Procedure: The binding profile of Abcs35-J compared to Abcs35 was determined for human ROBO2, orthologs from cynomolgus monkey and rat, human ROBO1 and specificity for the RSK epitope from ROBO2 but not KSR from ROBO1. Binding was assessed by flow cytometry as described in Examples 2 (homolog specificity), Example 3 (ortholog reactivity) and Example 5 (RSK vs KSR epitope specificity). […] Binding of the antibodies was detected using a secondary fluorochrome conjugated anti-human IgG F(ab′)₂ antibody and samples analyzed on a Fortessa cytometer (BD Biosciences). […] FIGS. 16A-16F depicts binding profiles of Abcs35 (black circles) or Abcs35-J (grey squares) to human ROBO2 (FIG. 16A), cynomolgus monkey ROBO2 (FIG. 16B), rat ROBO2 (FIG. 16C), human ROBO1 (FIG. 16D), ROBO1 containing the ROBO2 RSK epitope (FIG. 16E) or ROBO2 containing the ROBO1 KSR epitope (FIG. 16 F).
binder,measurement,value
B1,binding result,no binding (tested: last point just below 10^1 nM)
